# Results as given in article PMC6750108, “Crystal Structure of 4-Hydroxyphenylpyruvate Dioxygenase in Complex with Substrate Reveals a New Starting Point for Herbicide Discovery” (Research, 2019).
# Positions count from the first letter of the chain named. In names and notes the source's numbering stands.
# B1: AtHPPD (Arabidopsis thaliana; Q307A) (protein)
# chain: MGHQNAAVSENQNHDDGAASSPGFKLVGFSKFVRKNPKSDKFKVKRFHHIEFWCGDATNVARRFSWGLGMRFSAKSDLSTGNMVHASYLLTSGDLRFLFTAPYSPSLSAGEIKPTTTASIPSFDHGSCRSFFSSHGLGVRAVAIEVEDAESAFSISVANGAIPSSPPIVLNEAVTIAEVKLYGDVVLRYVSYKAEDTEKSEFLPGFERVEDASSFPLDYGIRRLDHAVGNVPELGPALTYVAGFTGFHQFAEFTADDVGTAESGLNSAVLASNDEMVLLPINEPVHGTKRKSQIQTYLEHNEGAGLAHLALMSEDIFRTLREMRKRSSIGGFDFMPSPPPTYYQNLKKRVGDVLSDDQIKECEELGILVDRDDQGTLLQIFTKPLGDRPTIFIEIIQRVGCMMKDEEGKAYQSGGCGGFGKGNFSELFKSIEEYEKTLEAKQLVG
# notes: full-length, N-terminal His tag (pET15b), E. coli BL21 (DE3); Ni-NTA, ion exchange, size exclusion; homodimers in crystal
# B2: AtHPPD (Arabidopsis thaliana; N423A) (protein)
# chain: B1 chain with A307Q, N423A
# notes: as for B1
# B3: AtHPPD (Arabidopsis thaliana; F381A) (protein)
# chain: B1 chain with A307Q, F381A
# notes: as for B1
# B4: AtHPPD (Arabidopsis thaliana; S267A) (protein)
# chain: B1 chain with S267A, A307Q
# notes: as for B1
# B5: AtHPPD (Arabidopsis thaliana; Q293A) (protein)
# chain: B1 chain with Q293A, A307Q
# notes: as for B1
# B6: AtHPPD (Arabidopsis thaliana; N282A) (protein)
# chain: B1 chain with N282A, A307Q
# notes: as for B1
# B7: AtHPPD (Arabidopsis thaliana) (protein)
# chain: B1 chain with A307Q
# notes: as for B1
# Substrate: O=C(O)C(=O)Cc1ccc(O)cc1
# Test: purified protein
# Assay type: biochemical, Arabidopsis thaliana
# Conditions: apparent, air-saturated 20 mM HEPES pH 7.0, 25 °C, 0.1 mM FeSO4, 2 mM ascorbate
Protein,Km [µM],kcat [s⁻¹],kcat/Km [M⁻¹ s⁻¹]
B1,30.31 ± 1.67,0.176 ± 0.004,5800
B2,15.66 ± 4.29,0.545 ± 0.061,34800
B3,9.10 ± 0.94,0.924 ± 0.032,102000
B4,5.33 ± 1.59,0.249 ± 0.025,46700
B5,90.41 ± 11.33,0.014 ± 0.001,150
B6,10.83 ± 2.33,0.039 ± 0.003,3600

# Same assay, conditions: apparent, air-saturated 20 mM HEPES pH 7.0, 25 °C, 0.1 mM FeSO4, 2 mM ascorbate, crystal with Co2+, 2.80 Å
Protein,Km [µM],kcat [s⁻¹],kcat/Km [M⁻¹ s⁻¹]
B7,1.87 ± 0.37,1.08 ± 0.053,577000
